# Source: publication PMC3642871 (Biochemistry, 2008)
# B1: ΔC5 huMIF(1-109) (domain or fragment, human, UniProt P14174 2-110, looked up)
# chain: PMFIVNTNVPRASVPDGFLSELTQQLAQATGKPPQYIAVHVVPDQLMAFGGSSEPCALCSLHSIGKIGGAQNRSYSKLLCGLLAERLRISPDRVYINYYDMNAANVGWN
# B2: ΔC10 huMIF(1-104) (domain or fragment, human, UniProt P14174 2-105, looked up)
# chain: PMFIVNTNVPRASVPDGFLSELTQQLAQATGKPPQYIAVHVVPDQLMAFGGSSEPCALCSLHSIGKIGGAQNRSYSKLLCGLLAERLRISPDRVYINYYDMNAA
# B3: Recombinant, soluble huMIF receptor ectodomain (sCD74 73-232) (domain or fragment, UniProt P04233-2 73-232, looked up)
# chain: QQQGRLDKLTVTSQNLQLENLRMKLPKPPKPVSKMRMATPLLMQALPMGALPQGPMQNATKYGNMTEDHVMHLLQNADPLKVYPPLKGSFPENLRHLKNTMETIDWKVFESWMHHWLLFEMSRHSLEQKPTDAPPKESLELEDPSSGLGVTKQDLGPVPM
# B4: P107 huMIF (natural protein, human, UniProt P14174 2-115, looked up)
# chain: PMFIVNTNVPRASVPDGFLSELTQQLAQATGKPPQYIAVHVVPDQLMAFGGSSEPCALCSLHSIGKIGGAQNRSYSKLLCGLLAERLRISPDRVYINYYDMNAANVPGWNNSTFA
# How the values were obtained:
# [1] = biological target: B3; experiment: ELISA
# AUC = biological target: the molecule itself; experiment: AUC
# Biotinylated huMIF = Biotinylated huMIF (human, UniProt P14174 2-115, biotin (sites not given)); experiment: ELISA
binding result [1],binding result (Biotinylated huMIF),Binder,stoichiometry N (AUC)
binds,,B1,3
binds,,B2,3
,binds,B3,
,,B4,3
